Test results taken from US20230312718A1 (Regeneron, published 2023).

Target: T1, MUC16 on OVCAR-3 cells (human, UniProt Q8WXI7 1-14507)
T1 construct: whole, on cells
Experiment: FACS binding to OVCAR-3 cells

binding result: binds
B1: BSMUC16/CD3-001 (bispecific antibody, V domains shown)
VH 1: QVQLVESGGGLVKPGGSLRLSCAASGFTFSNYYMSWVRQAPGKGLEWISYISGRGSTIFYADSVKGRITISRDNAKNSLFLQMNSLRAEDTAVYFCVKDRGGYSPYWGQGTLVTVSS
VH 2: EVQLVESGGGLVQPGRSLRLSCAASGFTFDDYSMHWVRQAPGKGLEWVSGISWNSGSKGYADSVKGRFTISRDNAKNSLYLQMNSLRAEDTALYYCAKYGSGYGKFYHYGLDVWGQGTTVTVSS
VL: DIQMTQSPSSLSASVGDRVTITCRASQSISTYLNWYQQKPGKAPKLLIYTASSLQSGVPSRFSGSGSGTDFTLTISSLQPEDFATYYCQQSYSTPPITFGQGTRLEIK
notes: It was biotinylated in the ELISA and 89Zr-DFO labelled in the PET study; also called REGN4018; ubamatamab
